Assay results published in patent publication US20020072115A1.

Biological target: α6 integrin (mouse) (UniProt Q61739)
Experiment: cell-based or functional assay

Sequence of UniProt Q61739 (Q61739 24-1091): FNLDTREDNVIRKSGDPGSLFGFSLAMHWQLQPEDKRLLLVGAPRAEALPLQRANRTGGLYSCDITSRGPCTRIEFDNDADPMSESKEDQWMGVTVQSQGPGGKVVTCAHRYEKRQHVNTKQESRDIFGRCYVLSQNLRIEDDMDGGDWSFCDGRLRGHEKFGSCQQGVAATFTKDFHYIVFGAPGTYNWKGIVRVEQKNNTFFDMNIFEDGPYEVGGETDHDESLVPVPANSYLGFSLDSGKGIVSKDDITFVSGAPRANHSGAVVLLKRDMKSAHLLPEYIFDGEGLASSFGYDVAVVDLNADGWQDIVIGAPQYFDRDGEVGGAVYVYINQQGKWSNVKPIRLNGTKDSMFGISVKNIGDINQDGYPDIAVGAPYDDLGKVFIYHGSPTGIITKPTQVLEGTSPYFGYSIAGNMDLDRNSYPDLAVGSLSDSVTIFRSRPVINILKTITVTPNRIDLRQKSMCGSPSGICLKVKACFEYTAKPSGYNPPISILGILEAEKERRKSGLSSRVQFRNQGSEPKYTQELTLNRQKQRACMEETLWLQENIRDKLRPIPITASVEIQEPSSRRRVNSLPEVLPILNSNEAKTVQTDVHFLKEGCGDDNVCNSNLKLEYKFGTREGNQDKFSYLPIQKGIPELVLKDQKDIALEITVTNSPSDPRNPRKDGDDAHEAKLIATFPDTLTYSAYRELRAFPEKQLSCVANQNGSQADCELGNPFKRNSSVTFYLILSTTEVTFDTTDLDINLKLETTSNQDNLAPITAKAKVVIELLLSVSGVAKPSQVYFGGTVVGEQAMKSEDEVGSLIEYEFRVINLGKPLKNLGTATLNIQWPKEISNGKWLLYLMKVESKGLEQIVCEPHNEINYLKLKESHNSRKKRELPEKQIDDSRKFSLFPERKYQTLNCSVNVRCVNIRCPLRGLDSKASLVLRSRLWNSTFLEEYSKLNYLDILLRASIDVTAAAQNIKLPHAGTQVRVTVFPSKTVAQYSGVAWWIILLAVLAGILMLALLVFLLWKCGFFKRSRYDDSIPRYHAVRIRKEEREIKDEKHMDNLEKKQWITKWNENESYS

Q: With “Rat monoclonal antibody (clone NKI-GoH3, IgG2a)” as the substance, how does the total cell number per well (13.5 dpc fetal mouse pancreas cells cultured with laminin-1) (cells per well) read?
A: 7190

Q: And the β cell number per well (13.5 dpc fetal mouse pancreas cells cultured with laminin-1) (cells per well)?
A: 6890
